Assay results reported in paper PMC12785156.

Molecular target: T1, hydroxylated His-AtHPPD (under oxidative stress, H2O2) (Arabidopsis thaliana), P93836
T1 chain: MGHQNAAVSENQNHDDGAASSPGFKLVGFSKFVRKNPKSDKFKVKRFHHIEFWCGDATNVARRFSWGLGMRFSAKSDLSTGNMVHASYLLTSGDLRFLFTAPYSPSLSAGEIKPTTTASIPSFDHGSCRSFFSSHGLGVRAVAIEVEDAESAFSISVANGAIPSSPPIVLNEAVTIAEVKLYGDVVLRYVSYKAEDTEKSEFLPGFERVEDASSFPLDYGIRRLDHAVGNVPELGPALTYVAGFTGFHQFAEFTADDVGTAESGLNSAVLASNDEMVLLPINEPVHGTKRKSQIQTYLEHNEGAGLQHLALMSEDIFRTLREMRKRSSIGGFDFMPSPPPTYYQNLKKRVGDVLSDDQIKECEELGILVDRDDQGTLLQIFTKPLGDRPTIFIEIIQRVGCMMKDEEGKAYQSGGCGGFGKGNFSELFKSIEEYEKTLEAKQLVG
Assay: MST; as the MST of untreated His-AtHPPD, but AtHPPD under oxidative stress (H2O2, concentration not stated); GST-PUB11-ARM serially diluted; 25°C; 20 mM HEPES pH 8.0, 100 mM NaCl

Kd: 2930 nM
B1: GST-PUB11-ARM (domain or fragment)
chain: QPAGYINGRTKNSGDMSVIRALVQRLSSRSTEDRRNAVSEIRSLSKRSTDNRILIAEAGAIPVLVNLLTSEDVATQENAITCVLNLSIYENNKELIMFAGAVTSIVQVLRAGTMEARENAAATLFSLSLADENKIIIGGSGAIPALVDLLENGTPRGKKDAATALFNLCIYHGNKGRAVRAGIVTALVKMLSDSTRHRMVDEALTILSVLANNQDAKSAIVKANTLPALIGILQTDQTRNRENAAAILLSLCKRDTEKLITIGRLGAVVPLMDLSKNGTERGKRKAISLLELLRKACQ
modifications: not checked
